Source: the domain aggregation screens of Martell et al. (2025)

Test: soluble fraction after stress (log2 fold change); higher = more stays soluble; pooled small domains, quantitative proteomics
Conditions: stress: pH 4
Summary of the method: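 With high-throughput quantitative proteomics, pooled custom libraries of small protein domains were measured after pH 4 stress. Each domain's soluble amount after the stress gives a fold change taken as aggregation propensity. Higher log2 values mean more of the domain stayed soluble.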

Row | Sequence | soluble fraction (log2)
1 | HMAGTPAIVKWFNPTKGFGFVTPKEAGSDALLHASVLAKRGKRWLQEGTLVEVLIEEGPKGLVVSELLTIE | -0.659
2 | HMAGTRRFELVEGSSSKFWEVTVADGSYTVTYGRIGTAGGSKTTESATAEADAEKLVREKLKKGYQEAGAA | 0.128
3 | HMAGTRVWSENGQLYVTAAVSGRANVYNVLGKLNRSLTFSAGETKSVSVPAGIYVVSLNNGKAYKVAV | 0.0936
4 | HMAGWIPVEERLPDDLTNPITRDAYVYPVTVDLGDVTDIRYYSFWRGHWYNQGPETMDDLVIAWMLLPEPY | -0.178
5 | HMAHESYVKEQLLLSLTNHEDPIMQISLIEQLTKMHERNIIHELEKLTVDVQTNEEVKVQAYASLLILS | -0.962
6 | HMAHKYYSIMRPVSIGTFPDNGTILGIVNFDTRQMVESIGKMAWGYINYGKPLTEKQISDYELVAE | 0.361
7 | HMAHLNYQTVDINALIRHSLQLVSQDAQSRGIALQFTPRPELTTISADPDRLNQVLLNLYLNAMQD | -0.205
8 | HMAHLSPNDAARLVGVSRPLLNQILDEGRITFFETAGGHRKIKLAAVLAYIKERDEVAAQLAAART | -0.514
9 | HMAHSDEAWSVARRVARELDKILDGAGPRRTALVRAAAELRLSTRQIYNLLARYRADRTVTSLLPRR | -0.353
10 | HMAHSWEAIRVKLQQIIDEEDKTKPLNDDQIKEKLAEAGIPNLARRTVAKYRKLLNIPTARFRKR | 0.208
11 | HMAIDINKIYSEIKKKIPNQDNHIKEILSIIWRDFNNYQNIKSRSILINGEKSSPKKEIFNIIEDNINIPV | 0.00852
12 | HMAIDPLLDKGYEQYDKGEFTEAVKSFNRAIEIDPKNAEAHFLRAMTYQGLALSKLAVADLEKAIV | -0.127
13 | HMAIGDYYINASALNVRSGEGTNYRIIGALPQGQKVQVISENSGWSKINYNGQTGYIGTRYLSKTPV | 0.22
14 | HMAIHTSVTEHGEHDLTVRMEMEQVFAIEMAVVSHEQATMLERTFKANAEAIYQKLLGVMTQEYP | -0.841
15 | HMAISEEEATNLALERVPGASAQDLRIQLEFDDGVQKYEGDIIYDGKEYDFEIDANTGTFLEWSE | 0.22
16 | HMAISSADRIVAELRTWISGASPGTQLPSSRTLAARYGASPVTVQKALHTLAGMGLVEARPGAGTFVRRQS | ≥ 0.43
17 | HMAITVPEGATLSDAAVLLKQAGAVRSADAFLTRAKVFGGSTPIKAGEFVIPVQASNKDILAILQGGK | -0.193
18 | HMAKIATTVYEQIRTAILNGELSNSERLVEEDLAVSMGISRTPVREALRRLAAEGLVDVSPNRGARVAE | -0.778
19 | HMAKINFTSDAIDIGMVTRNDIEMLSFYQNVLGLTKDMEIPFPGLGVVNKLSFGSGFIKILVL | -0.272
20 | HMAKLGITQREQEVLQLLVTGKTYKEIAAELFISLPTVKTHVSNIYSKAKVRNRLELSNLINYI | -1.22
21 | HMAKNYYEILGLKSDATLPEIKKAFKKLSKKFHPDKNRDDDGYFESMFKSINEAYQVLIDEDKRATFDSHH | 0.166
22 | HMAKPAALLFEHRFDGMAEMRFRENIVKNDDGSYTYDEYFLSMLDRAGLEKIVQENMEVWIAYAKQ | -1.42
23 | HMAKPVKSPLPGSVIKVAVKVGQQIKRGDLLLTLESMKMENSILAEKDGVVKNIHVQAGQSVMQDDLLLDI | -0.957
24 | HMAKPVNISAEPYHYDPTRFRVTFELPRLSDQPRKRIRKVAPAGLDREQALAWAKRLEREVLHELLR | -0.144
25 | HMAKVSVNIILKDGVDQTTFVNDVTSNTEVDLKNQLISLPQMVVLSVEEDYINTLKSHSSISILELDE | -0.541
26 | HMALALDDLFDRYEQLQDQSLGDKTEEGQELRAMIRAYIEQEGLSVRVTRSTTNRELLELIEQEMEG | -0.703
27 | HMALENTDLYAHLRLSHTASVPEIQAALSARVKHMPLQTWLLARKWLLHPRLRERYDGMWSVRFGA | -0.136
28 | HMALGRTGEVYLPIPAGRAGHGKISITLQGALREVDAVTAGEALPRGTSVRVVDVAGNGVLLVEK | 0.32

Row | Sequence | soluble fraction (log2)
29 | HMALHDTLSYEEYLDLGLNGKADSAEKRELVAHALHLGRPNAKTLYKRLNMLQLNRKDVAALLEQ | 0.299
30 | HMALHLPTTTINGRQYYYFKSKEKITVYGLSKRLGLTRQEIVEHNPSAVDGIKRGSTLYFPVDEFAD | -0.074
31 | HMALLKRQDEILMYLYTQNKWITGNELAQLFHVSLRTIRNDISFINTEKSNSVLSNRNKGYHIAKDFVYNE | -0.0758
32 | HMALPDSEKRQWLVDEVNERGLKLPDDVLEYLFARVGRSQAHLVDVIEKLDFESLAQSRKLTIPFVREVLK | -0.753
33 | HMALPRYFFRTRENGAVLFKTPVNNHQNRLEMHQIAAINIRNETVKPLGDTVLTDEETELIADWMRERKTV | -0.596
34 | HMALSVRNRMSDLLRMLGDGEFHRFENLFSLEEGRHGIVVTFLAMLELAKEQLVEISQGESLAPIYLKSLA | -0.403
35 | HMAMDVKEVLLPGVGLRYEFDNSDGDRIGVIAKRSGDFEVVRYTAADRDAAQPMFRLTDEEADALAQILGA | -0.487
36 | HMAMDYYAIGQRIRKFRKAHDWSQEELAEKVEISTTHMSHIETGSTKLSLPVLVSLANVLDVRTDDLLF | -0.272
37 | HMAMKFQDIVRQKRKELGLTQEQAARRLGVSPAAVSKWESGQSLPDTPLFAPLARLLHTDLNTLLSFE | -0.34
38 | HMAMTQNVDLAGRIVFNEKKEEVFNFGKHKGRSVAEVFEKEPSYYDWMLKGDFPAETKQVLTALRLRGLS | -0.64
39 | HMAMTRTEYLNQLKHYLKRLPHTDYEEAMDYFKEYFEEAGPENEAQVIQDLGNPKEAAYEILSQLL | -0.615
40 | HMANDNFPLKLGSKGPRVLQLKTMLIQSLSNDALPKGRSSDAFDSELEALLSRNNLPTVIDETNFRVLTK | 0.0149
41 | HMANFGSILRNLRISRDITQSELAAKLGVSRSTVGMYETGAREPDFEAMEAIADTFNVDMDYLVGRSQ | -0.326
42 | HMANLAQITKTNAVALALKDVGAYNSEDLMKFIDLDKVVLGEDGKPQLEDTINSLKESSPYLFQ | -0.843
43 | HMANMTAKQINMFGDKLSRDKDFQSYYIAKSGDSREQYAQDIKGKLLDPFYVNAWMPYLEKIGFVPS | 0.106
44 | HMANPEFAGYINGKPYFGPTHQHRGVKMLGATHTRNPHPLVWDSIAESLANYDSRFRWSGGQIL | -0.203
45 | HMANTAKVNVDTANLRETADENSKILKQLSLNDNLEVVEETGDWYKVKNSNVTGYVRKDLVTVEN | 0.244
46 | HMANTLDPMDLKQIISLHLDGFSNRKIGATLGISRNTVNTYMRLFSVSDYALKELLTLDNATLDKLFPS | -0.603
47 | HMANYYEILGVKHDATEAEIKAAYKQAAKSAHPDAGGSNEKMQEVNAAWEVLGNAQKRAEYDARMA | 0.349
48 | HMAPAGGITRQDLFAWGLMGGEGSREKRQQLKKSLGLPSHLGTSGFLDALNLIATRDQVEALLHK | ≥ 0.43
49 | HMAPAILTVQVKPDKIREIIGPGGKMIRMIQSETNTRVEVDDSGLVKIAAVSKEEGEAALKMVSDITME | -0.177
50 | HMAPDAPDGFVHRWIRAEMLGQEDKSNVHRRMQEGYELVRADEYPDSDLPVAEGRYAGIIGVGGLLLARF | -0.268
51 | HMAPDDTAVWSAFIGWFRTAPDGPNPLGAYAAKLGEEGLDAAEVGRRMTVIVRLFAEKPEGAEVFYDRTYA | -0.456
52 | HMAPDYYALLGVPRNATTAEVRKAFRGKALEQHPDRGGDEESFRLLSKAYDVLSDSERRKYYDRTG | 0.14
53 | HMAPEKLVHELVGLSLRAGNLDLLAATLSAHKTVLSKESTAEYVKAGLAIEPNHLPLRVLAEQDLGWS | -0.936
54 | HMAPFVIQQGQDVRLISKGPGFAVSNDGKALTNAAEGQLARARTANGQTVSGIARQGGIIEIA | -0.068
55 | HMAPGIGDSKYFSHIYEMKHIDTIIDNDKGDRLIEHFEIQDTPFIFTKHWTSAFGFSKRQQEIITDYLSYF | -0.0653
